Normalised SPOT signal, Boehringer light units (BLU); mean over the file's lines of this peptide data for 38 molecules are collected here from PMC314469, “Protein Interaction Networks by Proteome Peptide Scanning” (PLoS Biology, 2004).

B1: Q96LS1 115-128 (peptide)
chain: LQPRPRRPREAADT
B2: P22105 891-904 (peptide)
chain: LSQPPRRPWGNLTA
B3: O43611 94-107 (peptide)
chain: LQGIFTRPSKLTRQ
B4: Q9NXY3 388-402 (peptide)
chain: LQLGPSRPPTGEAL
B5: O60673 804-817 (peptide)
chain: LSNSLTRPQKLSPV
B6: Q9UNU2 285-298 (peptide)
chain: LRAMPSRPPRLLAT
B7: P53621 15-28 (peptide)
chain: LSFHPKRPWILTSL
B8: Q96QH2 325-339 (peptide)
chain: LSDFPKKPPQPELG
B9: Q04727 335-349 (peptide)
chain: LRPVPGKPPGVDPL
B10: Q9NVU6 531-544 (peptide)
chain: LQRRLKRPETPTHD
B11: Q9Y566 1372-1386 (peptide)
chain: APQPPPRPPSPRYE
B12: Q96JV6 461-474 (peptide)
chain: LRATLKRPEVIATS
B13: Q9P2E3 383-396 (peptide)
chain: LREDFVRPLREGIL
B14: P12270 2055-2069 (peptide)
chain: APQSPRRPPHPLPP
B15: O95125 124-137 (peptide)
chain: LQKQPRRPRRWVTV
B16: P19429 134-147 (peptide)
chain: LRGKFKRPTLRRVR
B17: Q15653 147-160 (peptide)
chain: LQPRPRRPREAPDT
B18: Q06481 479-492 (peptide)
chain: LQSDPPRPHRILQA
B19: Q9UKB5 52-66 (peptide)
chain: LPRSPPRPPRLWSF
B20: Q16753 167-180 (peptide)
chain: LRQPLRRPFRPNGL
B21: Q9NWE5 158-171 (peptide)
chain: LSLLLKRPWDPAVG
B22: Q96FL6 71-84 (peptide)
chain: LRRLLKRPELEEIF
B23: O14789 574-588 (peptide)
chain: LRKRPLKPPAKKIM
B24: P48788 102-115 (peptide)
chain: LRGKFKRPPLRRVR
B25: Q96Q04 431-445 (peptide)
chain: LSERPPRPPPPPPP
B26: Q9BQL3 78-91 (peptide)
chain: LSGGLKRPSTRTPN
B27: Q96S42 159-172 (peptide)
chain: LSKWLKRPGALEKQ
B28: Q9H3P5 284-297 (peptide)
chain: LQRQLKRPRPVILD
B29: O94766 54-67 (peptide)
chain: LQAELRRPPPAPAQ
B30: Q9NYU0 896-909 (peptide)
chain: LRRHPSRPMRQSRR
B31: Q96QS4 5-18 (peptide)
chain: LQFRIRRPRPPARG
B32: P27815 35-48 (peptide)
chain: APRAPRRPRSPPSS
B33: O14687 279-293 (peptide)
chain: LSPRPEKPPEEPGQ
B34: Q9H0F6 46-59 (peptide)
chain: LSADPERPGRFRLE
B35: Q9NWJ0 49-62 (peptide)
chain: LRPVPRRPSTWSRR
B36: Q9P2P9 1564-1577 (peptide)
chain: LRWGFSRPRKDKGL
B37: Q9Y2E6 378-391 (peptide)
chain: LPVSLTRPPKLVLH
B38: O43295 603-616 (peptide)
chain: LRPPPMRPVRPVVQ

In one experiment the target is endophilin SH3 (SH3G2_HUMAN), Q99962. The experiment can be described thus: SPOT array.
As to B1, the normalised SPOT signal, Boehringer light units (BLU); mean over the file's lines of this peptide stood at 329.
Turning to B2, the normalised SPOT signal, Boehringer light units (BLU); mean over the file's lines of this peptide was determined as 154.
Take B3: the normalised SPOT signal, Boehringer light units (BLU); mean over the file's lines of this peptide amounted to 210.
Take B4: the normalised SPOT signal, Boehringer light units (BLU); mean over the file's lines of this peptide is 62.4.
Same read-out and setting: for B5 the value was 106.
The same measure, in the same setting: for B6 the value was 7160.
Same read-out and setting: for B7 the value was 121.
Molecule B8 yielded a normalised SPOT signal, Boehringer light units (BLU); mean over the file's lines of this peptide of 95.7.
On the same count and under the same terms, for B9 the value was 32.5; for B10, 41.8.
B11 displayed a normalised SPOT signal, Boehringer light units (BLU); mean over the file's lines of this peptide of 14500.
As to B12, the normalised SPOT signal, Boehringer light units (BLU); mean over the file's lines of this peptide came to 97.1.
In the case of B13, the normalised SPOT signal, Boehringer light units (BLU); mean over the file's lines of this peptide was 208.
B14 returned a normalised SPOT signal, Boehringer light units (BLU); mean over the file's lines of this peptide of 2810.
The same measure, in the same setting: for B15 the value was 220.
For the molecule B16, the normalised SPOT signal, Boehringer light units (BLU); mean over the file's lines of this peptide came out at 38.
In turn, B17 came in with a normalised SPOT signal, Boehringer light units (BLU); mean over the file's lines of this peptide of 222.
For B18, the normalised SPOT signal, Boehringer light units (BLU); mean over the file's lines of this peptide turned out to be 184.
The same measure, in the same setting: for B19 the value was 24000; for B20, 489; for B21, 38.6.
As to B22, the normalised SPOT signal, Boehringer light units (BLU); mean over the file's lines of this peptide was found to be 59.1.
In turn, B23 came in with a normalised SPOT signal, Boehringer light units (BLU); mean over the file's lines of this peptide of 6220.
Consider B24, for which the normalised SPOT signal, Boehringer light units (BLU); mean over the file's lines of this peptide amounted to 50.6.
In the case of B25, the normalised SPOT signal, Boehringer light units (BLU); mean over the file's lines of this peptide was 944.
For B26, the normalised SPOT signal, Boehringer light units (BLU); mean over the file's lines of this peptide amounted to 27.
Same read-out and setting: the same measure for B27: 67.5; for B28: 194; for B29: 21.1.
For B30, the normalised SPOT signal, Boehringer light units (BLU); mean over the file's lines of this peptide came out at 412.
Take B31: the normalised SPOT signal, Boehringer light units (BLU); mean over the file's lines of this peptide amounted to 48.5.
Same read-out and setting: for B32 the value was 257.
In turn, B33 came in with a normalised SPOT signal, Boehringer light units (BLU); mean over the file's lines of this peptide of 39.8.
The same measure, in the same setting: the same measure for B34: 121; for B35: 4830.
Consider B36, for which the normalised SPOT signal, Boehringer light units (BLU); mean over the file's lines of this peptide was 102.
The same measure, in the same setting: the same measure for B37: 272; for B38: 16200.

The target in a further experiment is T1, amphyphisin SH3 (AMPH_HUMAN), P49418.
T1 chain: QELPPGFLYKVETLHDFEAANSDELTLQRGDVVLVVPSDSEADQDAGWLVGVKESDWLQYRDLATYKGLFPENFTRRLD
The experiment can be described thus: SPOT array.
In the case of B1, the normalised SPOT signal, Boehringer light units (BLU); mean over the file's lines of this peptide worked out at 371.
Same read-out and setting: for B2 the value was 60.8; for B3, 324.
Same read-out and setting: the same measure for B4: 38.
On the same count and under the same terms, the same measure for B5: 120; for B6: 5160; for B7: 23.4.
Take B8: the normalised SPOT signal, Boehringer light units (BLU); mean over the file's lines of this peptide came out at 64.9.
As for B9, the normalised SPOT signal, Boehringer light units (BLU); mean over the file's lines of this peptide is 66.4.
Same read-out and setting: the same measure for B10: 28.9; for B11: 1320; for B12: 37.9.
The same measure, in the same setting: for B13 the value was 5300; for B14, 339.
Still for that read-out and setting: the same measure for B15: 2180; for B16: 23.3.
With B17, the normalised SPOT signal, Boehringer light units (BLU); mean over the file's lines of this peptide turned out to be 412.
Molecule B18 returned a normalised SPOT signal, Boehringer light units (BLU); mean over the file's lines of this peptide of 170.
On to B19, for which the normalised SPOT signal, Boehringer light units (BLU); mean over the file's lines of this peptide turned out to be 15300.
Molecule B20 yielded a normalised SPOT signal, Boehringer light units (BLU); mean over the file's lines of this peptide of 1690.
The same measure, in the same setting: the same measure for B21: 30; for B22: 35.9; for B23: 91.3.
Still for that read-out and setting: for B24 the value was 35.8; for B25, 341.
The same measure, in the same setting: for B26 the value was 22.4.
B27 came in with a normalised SPOT signal, Boehringer light units (BLU); mean over the file's lines of this peptide of 21.1.
The same measure, in the same setting: the same measure for B28: 41.9; for B29: 26.4.
The molecule B30 registered a normalised SPOT signal, Boehringer light units (BLU); mean over the file's lines of this peptide of 3450.
On the same count and under the same terms, for B31 the value was 84.3; for B32, 92.3; for B33, 46.1.
Turning to B34, the normalised SPOT signal, Boehringer light units (BLU); mean over the file's lines of this peptide was 37.1.
In turn, B35 gave a normalised SPOT signal, Boehringer light units (BLU); mean over the file's lines of this peptide of 2420.
Still for that read-out and setting: the same measure for B36: 259; for B37: 121.
Take B38: the normalised SPOT signal, Boehringer light units (BLU); mean over the file's lines of this peptide was 7210.
